Results on 3 molecules are retold here after CN115073593A (SHANGHAI JUNSHI BIOSCIENCES CO LTD; JUNMENG BIOSCIENCES CO …, dated 2022).

The chains are these.
B1: JS016-40 (antibody, V domains shown)
VH: EVQLVESGGGLVQPGGSLRLSCAASGFTVGWNYMSWVRQAPGKGLEWVSVIYPGGTTFYADSVKGRFTISRDNSMNTLFLQMNSLRAEDTAVYYCARVLPMYGDYLDYWGQGTLVTVSS
VL: DIVMTQSPSSLSASVGDRVTITCRASQNIERYLNWYQQKPGKAPKLLIYAASSLQSGVPSRFSGSGSGTDFTLTISSLQPEDFATYYCQQSASSTPEYTFGQGTKLEIKR
B2: JS016-41-YTE (antibody, V domains shown)
VH: EVQLVESGGGLVQPGGSLRLSCAASGFVVQANYMSWVRQAPGKGLEWVSVIYPGGSTFYADSVKGRFTISRDNSMNTLFLQMNSLRAEDTAVYYCARVLPMYGDYLDYWGQGTLVTVSS
VL: DIVMTQSPSSLSASVGDRVTITCRASQNIERYLNWYQQKPGKAPKLLIYAASSLQSGVPSRFSGSGSGTDFTLTISSLQPEDFATYYCQQSASSTPEYTFGQGTKLEIKR
B3: JS016-77-YTE (antibody, V domains shown)
VH: EVQLVESGGGLVQPGGSLRLSCAASGFVVQANYMSWVRQAPGKGLEWVSVIYPGGSTFYADSVKGRFTISRDNSMNTLFLQMNSLRAEDTAVYYCARVLPMYGDYLDYWGQGTLVTVSS
VL: DIVMTQSPSSLSASVGDRVTITCRASQNILPYLNWYQQKPGKAPKLLIYAASSLQSGVPSRFSGSGSGTDFTLTISSLQPEDFATYYCQQSSSAVPEYTFGQGTKLEIKR

For the assay, the target named is SARS-CoV-2 omicron突变株假病毒 (SARS-CoV-2 omicron variant). In words: cell-based or functional assay.
For B1, the “IC50(ng/ml), pseudovirus neutralisation, luciferase reporter” value (from here on “IC50(ng/ml), pseudovirus neutralisation”) was 24.6 ng/mL. For the molecule B2, the “IC50(ng/ml), pseudovirus neutralisation” value was 17.6 ng/mL. On to B3, for which the “IC50(ng/ml), pseudovirus neutralisation” value came to 776 ng/mL.
